Data: patent US20230212319A1, “NOVEL ANTIGEN BINDING DOMAINS AND SYNTHETIC ANTIGEN RECEPTORS INCORPORATING THE SAME” (University of Southern California, priority 2020, published 2023)

Key:
Format in all cases: cell-based
L363 cells = experiment: JNG assay, co-culture with L363 cells; conditions: co-culture with L363
Outline: (§1)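 Jurkat NFAT-GFP (JNG) cells stably transduced with SARs by lentivirus, with drug selection where the construct carried a resistance gene, then co-cultured with target cells at E:T ~1:2 for ~4–18 h. % GFP-positive cells measured by FACS against parental JNG; +/- to 5+ correspond to ~5–50% GFP-positive.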

RS;411 = experiment: JNG assay, co-culture with RS;411 cells; conditions: co-culture with RS411
Method: Cellular supernatant is collected and assayed for the induction of cytokines (e.g., IL2).
JNG (Jurkat cells expressing EGFP under an NFAT promoter) were infected with lentiviral vectors encoding different single chain and multi-chain SARs by spinfection in the presence of 8 µg/ml of Polybrene® (Sigma, Catalog no. H9268). The Jurkat-NFAT-GFP cells are engineered in such a way that the IL-2 promoter, which carries NFAT binding sites, is cloned upstream of the GFP gene. These cells have been used to study signaling via TCR and CAR. The different SARs were stably expressed in Jurkat NFAT-GFP cells by lentiviral mediated gene transfer, followed by selection with puromycin or blasticidin. No drug selection was used in case the construct lacked an antibiotic resistance gene. The SAR-expressing Jurkat-NFAT-GFP cells were cocultured with the target cells at E:T ratio of approximately 1:2 for approximately 4 hours to 18 hours. When the interaction between SIRs and their target antigen results in activation of the NFAT pathway, GFP expression is induced. […] GFP expression was monitored by FACS analysis. The Jurkat-NFAT-GFP (parental) cells were used as control. The structure of different constructs can be determined based on their names. […] The sequence of the other constructs in the table can be similarly determined from their names and by referring to the different Tables of this disclosure that provide the names and SEQ ID NO of the different modules. Alternatively, the composition and modular architecture of the different SAR constructs can be determined from their sequences by bioinformatics tools, including using nucleic acid and amino acids homology searches. A SAR is considered positive in the assay in case the SAR expressing Jurkat-NFAT-GFP cells show greater % GFP positive cells when cultured with the target cell line as compared to parental Jurkat-NFAT-GFP cells. […] In general, the number +/-, +, 2+, 3+, 4+, 5+ refer to approximately 5%, 10%, 20%, 30%, 40% and 50% GFP positive cells. The % of GFP induction in the above assay is dependent not only the relative strength of the SAR but also, among other factors, on the relative level of expression of the SAR in the JNG cells and the relative level of expression of the target antigen in the target cell line. To control for the difference in gene transduction efficiency of the different SAR constructs, the experiment was conducted with JNG cells transduced with SAR constructs co-expressing a drug resistance gene (e.g., puromycin or PAC) followed by drug selection to generate a stable population of SAR-expressing cells. It is to be noted that the drug resistance gene (e.g., PAC) in the SAR constructs is optional and in vivo studies were conducted with SAR constructs lacking the PAC gene.

RAJI cells = experiment: JNG assay, co-culture with RAJI cells; conditions: JNG cells expressing construct, co-culture with Raji
Outline: as §1

Molecule | NFAT-GFP ASSAY: L363 (L363 cells) | NFAT-GFP ASSAY: RS411 (RS;411) | NFAT-GFP ASSAY: Raji (RAJI cells)
22012 (protein) MDWIWRILFLVGAATGAHSQLQLQESGPGLVKPSETLSLTCTVSGGSVSSSSYYWGWIRQPPGKRLELIGSIYYGGSTYFNPSLKTRVTISVDTSKNQFSLKLSSVTAADTAVYYCAGGDTYGPVGQWPSDYRGQGTLVTVSSLEDLKNVFPPEVAVFEPSEAEISHTQKATLVCLATGFYPDHVELSWWVNGKEVHSGVCTDPQPLKEQPALNDSRYCLSSRLRVSATFWQNPRNHFRCQVQFYGLSENDEWTQDRAKPVTQIVSAEAWGRADCGFTSESYQQGVLSATILYEILLGKATLYAVLVSALVLMAMVKRKDSRGRAKRSGSGATNFSLLKQAGDVEENPGPTSMDWIWRILFLVGAATGAHSFEVQLLESGGGLIQPGGSLRLSCAASGFTFSSHAMTWVRQAPGKGLEWVSAISGSGDYTHYADSVKGRFTISRDNSKNTVYLQMNSLRAEDSAVYYCAKDEDGGSLLGHRGQGTLVTVSSTRIQNPDPAVYQLRDSKSSDKSVCLFTDFDSQTNVSQSKDSDVYITDKCVLDMRSMDFKSNSAVAWSNKSDFACANAFNNSIIPEDTFFPSPESSCDVKLVEKSFETDTNLNFQNLSVIGFRILLLKVAGFNLLMTLRLWSSRAKRSGSGVKQTLNFDLLKLAGDVESNPGPSRGHMTEYKPTVRLATRDDVPRAVRTLAAAFADYPATRHTVDPDRHIERVTELQELFLTRVGLDIGKVWVADDGAAVAVWTTPESVEAGAVFAEIGPRMAELSGSRLAAQQQMEGLLAPHRPKEPAWFLATVGVSPDHQGKGLGSAVVLPGVEAAERAGVPAFLETSAPRNLPFYERLGFTVTADVEVPEGPRTWCMTRKPGA | + (refer to approximately 5%, 10%, 20%, 30%, 40% and 50% GFP positive cells) | +/- (refer to approximately 5%, 10%, 20%, 30%, 40% and 50% GFP positive cells) | –
22143 (protein) MALPVTALLLPLALLLHAARPQVQLVESGGGLVQPGGSLRLSCAASGFTFTNHAMSWVRQAPGKGLELVSSISGNGRTTYYADSVKGRFTISRDISKNTLDLQMNSLRAEDTAVYYCAKDGGETLVDSRGQGTLVTVSSLEGGGGSGGGGSIEGGGGSGGGGSKVQLLESGGGLVQPGGSLRLSCAASGFIFSSYAMSWVRQAPGKGQEWVSGVSGTGVNTYYADSVKGRFTISRDNSKNTLYLQMNSLRAEDTAVYYCASGKGWDSGSWYEDYRGQGTLVTVSSGTGGGGSGGGGSGGGGSEFDIQMTQSPSSLSASVGDRVTITCKASDHINNWLAWYQQKPGQAPKLLIYGATTLETGVPSRFSGSGSGTDYTLTISSLQPEDFATYYCQQSWNTPWTFGQGTKLEIKRLEDLKNVFPPEVAVFEPSKAEIAHTQKATLVCLATGFYPDHVELSWWVNGKEVHSGVCTDPQPLKEQPALNDSRYCLSSRLRVSATFWQNPRNHFRCQVQFYGLSENDEWTQDRAKPVTQIVSAEAWGRADCGITSASYHQGVLSATILYEILLGKATLYAVLVSALVLMAMVKRKDSRGRAKRSGSGATNFSLLKQAGDVEENPGPTSATMDWIWRILFLVGAATGAHSGPQVQLQESGGGLAQAGGSLRLSCAASGRTFSMGWFRQAPGKEREFVAAITYSGGSPYYASSVRGRFTISRDNAKNTVYLQMNSLKPEDTAVYYCAANPTYGSDWNAENWGQGTQVTVSSGSGGGGSGGGGSGGGGSFEQVQLQQPGAELVKPGASVKMSCKASGYAFSSYWINWMKQKPGQGLEWIGQIYPGDGDTNYNGKFKGRATLTADTSSSTAYMQLSSLTSEDSAVYFCARSITTVVGCAMDYWGQGTSVTVSSTRIQNPDPAVYQLRDSKSSDKSVCLFTDFDSQTNVSQSKDSDVYITDKCVLDMRSMDFKSNSAVAWSNKSDFACANAFNNSIIPEDTFFPSSDVPCDVKLVEKSFETDTNLNFQNLSVIGFRILLLKVAGFNLLMTLRLWSSRAKRSGSGVKQTLNFDLLKLAGDVESNPGPSRGHMTEYKPTVRLATRDDVPRAVRTLAAAFADYPATRHTVDPDRHIERVTELQELFLTRVGLDIGKVWVADDGAAVAVWTTPESVEAGAVFAEIGPRMAELSGSRLAAQQQMEGLLAPHRPKEPAWFLATVGVSPDHQGKGLGSAVVLPGVEAAERAGVPAFLETSAPRNLPFYERLGFTVTADVEVPEGPRTWCMTRKPGA | 2+ (refer to approximately 5%, 10%, 20%, 30%, 40% and 50% GFP positive cells) | 2+ (refer to approximately 5%, 10%, 20%, 30%, 40% and 50% GFP positive cells) | 2+ (refer to approximately 5%, 10%, 20%, 30%, 40% and 50% GFP positive cells)
22106 (protein) MALPVTALLLPLALLLHAARPDIQMTQSPSSLSASVGDRVTITCKASDHINNWLAWYQQKPGQAPKLLIYGATTLETGVPSRFSGSGSGTDYTLTISSLQPEDFATYYCQQSWNTPWTFGQGTKLEIKRLEDLKNVFPPEVAVFEPSKAEIAHTQKATLVCLATGFYPDHVELSWWVNGKEVHSGVCTDPQPLKEQPALNDSRYCLSSRLRVSATFWQNPRNHFRCQVQFYGLSENDEWTQDRAKPVTQIVSAEAWGRADCGITSASYHQGVLSATILYEILLGKATLYAVLVSALVLMAMVKRKDSRGRAKRSGSGATNFSLLKQAGDVEENPGPTSATMDWIWRILFLVGAATGAHSGPQVQLQESGGGLAQAGGSLRLSCAASGRTFSMGWFRQAPGKEREFVAAITYSGGSPYYASSVRGRFTISRDNAKNTVYLQMNSLKPEDTAVYYCAANPTYGSDWNAENWGQGTQVTVSSGSGGGGSGGGGSGGGGSFEQVQLQQPGAELVKPGASVKMSCKASGYAFSSYWINWMKQKPGQGLEWIGQIYPGDGDTNYNGKFKGRATLTADTSSSTAYMQLSSLTSEDSAVYFCARSITTVVGCAMDYWGQGTSVTVSSTRIQNPDPAVYQLRDSKSSDKSVCLFTDFDSQTNVSQSKDSDVYITDKCVLDMRSMDFKSNSAVAWSNKSDFACANAFNNSIIPEDTFFPSSDVPCDVKLVEKSFETDTNLNFQNLSVIGFRILLLKVAGFNLLMTLRLWSSRAKRSGSGVKQTLNFDLLKLAGDVESNPGPSRGHMTEYKPTVRLATRDDVPRAVRTLAAAFADYPATRHTVDPDRHIERVTELQELFLTRVGLDIGKVWVADDGAAVAVWTTPESVEAGAVFAEIGPRMAELSGSRLAAQQQMEGLLAPHRPKEPAWFLATVGVSPDHQGKGLGSAVVLPGVEAAERAGVPAFLETSAPRNLPFYERLGFTVTADVEVPEGPRTWCMTRKPGA | – | + (refer to approximately 5%, 10%, 20%, 30%, 40% and 50% GFP positive cells) | 5+ (refer to approximately 5%, 10%, 20%, 30%, 40% and 50% GFP positive cells)
